Laboratory results reported in paper PMC4716839.

Tests used:
[1] = system: Dna2 D278A (nuclease-dead) (Mus musculus); assay: bead pull-down; conditions: DNA preloaded with Rpa, EMSA: 20 mM Tris-HCl pH 8.0, 80 mM NaCl, 0.3 mM TCEP, 0.2 mg/mL BSA, 2% glycerol, on ice 30 min, 0.075 or 0.3 nM 32P-DNA, 4% native PAGE, 1x TB, 4 C, scale: % Dna2 loading relative to reaction lacking Rpa
[2] = system: Dna2 D278A (nuclease-dead) (Mus musculus); assay: EMSA; conditions: Kd only in figure; EMSA: 20 mM Tris-HCl pH 8.0, 80 mM NaCl, 0.3 mM TCEP, 0.2 mg/mL BSA, 2% glycerol, on ice 30 min, 0.075 or 0.3 nM 32P-DNA; 4% native PAGE, 1x TB, 4 C; scale: affinity relative to 5'(dT)24

For 3'-(dT)26 overhang DNA, biotinylated, the binding signal ([1]; negligible loading) was 3.
5'(dT)6 overhang DNA showed a binding signal [2] of 0.01.
For 5'(dT)8 overhang DNA, the binding signal [2] was 0.01.
In the case of 5'-(dT)26 overhang DNA, biotinylated, the binding signal [1] is reported as 45.
